According to the Human Domainome abundance scans (Beltran et al. 2025):
± gives the uncertainty stated by the source.

assay: abundance fitness (aPCA) (normalised: wild type 0, dead -1); higher = more abundant; growth selection in yeast, the domain comes from the species named; details: Homo sapiens

Substance | abundance fitness
SAFB-like transcription modulator E59T, Q9NWH9 | -0.323 ± 0.073
SAFB-like transcription modulator G61W, Q9NWH9 | -0.537 ± 0.059
SAFB-like transcription modulator V44D, Q9NWH9 | 0.055 ± 0.072
SAFB-like transcription modulator G19S, Q9NWH9 | -0.003 ± 0.064
SAFB-like transcription modulator V44M, Q9NWH9 | -0.092 ± 0.058
BAG family molecular chaperone regulator 3 K29Q, O95817 | -0.711 ± 0.28
SAFB-like transcription modulator D62Q, Q9NWH9 | -0.334 ± 0.079
SAFB-like transcription modulator R26H, Q9NWH9 | -0.322 ± 0.23
BAG family molecular chaperone regulator 3 P37R, O95817 | 0.857 ± 0.077
BAG family molecular chaperone regulator 3 N50Q, O95817 | -0.176 ± 0.1
SAFB-like transcription modulator E67A, Q9NWH9 | -0.197 ± 0.046
BAG family molecular chaperone regulator 3 R45M, O95817 | -0.442 ± 0.2
SAFB-like transcription modulator K21E, Q9NWH9 | -0.195 ± 0.064
SAFB-like transcription modulator I49A, Q9NWH9 | 0 ± 0.063
BAG family molecular chaperone regulator 3 R53S, O95817 | -0.523 ± 0.18
BAG family molecular chaperone regulator 3 G15I, O95817 | 0.795 ± 0.18
SAFB-like transcription modulator D64A, Q9NWH9 | -0.12 ± 0.04
SAFB-like transcription modulator D40R, Q9NWH9 | -0.354 ± 0.066
SAFB-like transcription modulator I49S, Q9NWH9 | -0.168 ± 0.05
SAFB-like transcription modulator K21L, Q9NWH9 | -0.324 ± 0.041
SAFB-like transcription modulator V27T, Q9NWH9 | 0.086 ± 0.092
BAG family molecular chaperone regulator 3 F39E, O95817 | -0.154 ± 0.085
BAG family molecular chaperone regulator 3 P52A, O95817 | -0.727 ± 0.16
SAFB-like transcription modulator R37N, Q9NWH9 | -1.12 ± 0.17

Substance | abundance fitness
BAG family molecular chaperone regulator 3 I28P, O95817 | -0.713 ± 0.28
SAFB-like transcription modulator I66C, Q9NWH9 | 0.196 ± 0.11
SAFB-like transcription modulator T42C, Q9NWH9 | 0.078 ± 0.097
SAFB-like transcription modulator K31G, Q9NWH9 | -0.859 ± 0.038
BAG family molecular chaperone regulator 3 Q11H, O95817 | -0.246 ± 0.26
BAG family molecular chaperone regulator 3 T46I, O95817 | -0.285 ± 0.21
BAG family molecular chaperone regulator 3 G17F, O95817 | -0.177 ± 0.23
BAG family molecular chaperone regulator 3 N16T, O95817 | 0.666 ± 0.11
BAG family molecular chaperone regulator 3 G15F, O95817 | 0.641 ± 0.083
SAFB-like transcription modulator L25N, Q9NWH9 | -0.172 ± 0.18
BAG family molecular chaperone regulator 3 V12S, O95817 | -0.14 ± 0.15
SAFB-like transcription modulator D29G, Q9NWH9 | -0.725 ± 0.096
SAFB-like transcription modulator V44W, Q9NWH9 | -0.358 ± 0.055
SAFB-like transcription modulator P63Q, Q9NWH9 | -0.48 ± 0.082
BAG family molecular chaperone regulator 3 T46K, O95817 | -0.435 ± 0.33
BAG family molecular chaperone regulator 3 G35H, O95817 | 0.552 ± 0.28
SAFB-like transcription modulator K31V, Q9NWH9 | -0.056 ± 0.053
SAFB-like transcription modulator N65R, Q9NWH9 | -0.094 ± 0.045
BAG family molecular chaperone regulator 3 P37S, O95817 | 0.7 ± 0.072
BAG family molecular chaperone regulator 3 D20S, O95817 | 0.15 ± 0.087
BAG family molecular chaperone regulator 3 P23Y, O95817 | -0.54 ± 0.29
SAFB-like transcription modulator D24Q, Q9NWH9 | -0.076 ± 0.037
BAG family molecular chaperone regulator 3 T34M, O95817 | 0.01 ± 0.23
SAFB-like transcription modulator L39Y, Q9NWH9 | -0.305 ± 0.038

Substance | abundance fitness
SAFB-like transcription modulator D24W, Q9NWH9 | -0.484 ± 0.039
SAFB-like transcription modulator D40L, Q9NWH9 | -0.35 ± 0.066
SAFB-like transcription modulator L39V, Q9NWH9 | -0.356 ± 0.059
BAG family molecular chaperone regulator 3 T34G, O95817 | 0.064 ± 0.087
SAFB-like transcription modulator N38T, Q9NWH9 | -0.233 ± 0.073
BAG family molecular chaperone regulator 3 Q11P, O95817 | -0.132 ± 0.41
SAFB-like transcription modulator N65P, Q9NWH9 | -0.575 ± 0.036
SAFB-like transcription modulator D24V, Q9NWH9 | -0.547 ± 0.033
BAG family molecular chaperone regulator 3 I30P, O95817 | -0.661 ± 0.084
SAFB-like transcription modulator I66Q, Q9NWH9 | -0.004 ± 0.11
BAG family molecular chaperone regulator 3 I28G, O95817 | -0.088 ± 0.08
BAG family molecular chaperone regulator 3 T47A, O95817 | -0.613 ± 0.17
SAFB-like transcription modulator L25V, Q9NWH9 | -0.748 ± 0.061
BAG family molecular chaperone regulator 3 P37H, O95817 | 0.517 ± 0.18
BAG family molecular chaperone regulator 3 D18C, O95817 | -0.009 ± 0.15
SAFB-like transcription modulator L52T, Q9NWH9 | -0.642 ± 0.16
SAFB-like transcription modulator S50P, Q9NWH9 | -0.521 ± 0.14
SAFB-like transcription modulator D24K, Q9NWH9 | -0.157 ± 0.034
SAFB-like transcription modulator E58P, Q9NWH9 | -0.867 ± 0.12
BAG family molecular chaperone regulator 3 W49Q, O95817 | -0.764 ± 0.42
BAG family molecular chaperone regulator 3 P37Y, O95817 | 0.573 ± 0.18
SAFB-like transcription modulator D64S, Q9NWH9 | -0.113 ± 0.035
